According to the RNAGym collection of RNA variant scans (doi:10.1073/pnas.2313332121):
Variants at the floor of the assay were thinned out.

B1: TPR 5TU (parent)
chain: GGAUCUUCUCGAUCUAACAAAAAAGACAAAUCUGCCACAAAGCUUGAGAGCAUCUUCGGAUGCAGAGGCGGCAGCCUUCGGUGGCGCGAUAGCGCCAACGUUCUCAACUAUGACACGCAAAACGCGUGCUCCGUUGAAUGGAGUUUAUCAUG

Variants of: B1
Assay: polymerase ribozyme fitness, log enrichment relative to wild type (log ratio); higher = more active; in vitro selection for triplet polymerase activity
Method in brief: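 Fitness compares each genotype's enrichment to that of the wild type on a logarithmic scale, averaging replicates with inverse-variance weights. The logarithm is base 2. Enrichment came from Illumina sequencing of input and output libraries after one triplicate round of in vitro selection, which included frozen incubation at −7 °C, of PCR-built, transcribed mutant libraries of each subunit of a heterodimeric triplet polymerase ribozyme. Only genotypes with ≥10 input reads and ≥1 read per output were kept.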

Point of comparison: A12U U109G, “polymerase ribozyme fitness (log ratio)” value -2.25. Against it:
- C14G A24C A49G G92C — lower, ≤ -4.2
- U13G A30C G50C U82A A110C G136U — lower, ≤ -4.2
- U13G C27A C36U A40C A60G A138G — lower, ≤ -4.2
- U13A U45A U56A G74A — lower, ≤ -4.2
- C14A G58C — higher, -1.28
- C14A G58U — higher, -1.88
- C14U A19G G94A A106G C131G — lower, ≤ -4.2
- C14G A28U G50A A119C A147U — lower, ≤ -4.2
- C14G G25C — lower, ≤ -4.2
- A12U C87U A120U — higher, -0.814
- C14G A24G A41U G67A G152A — lower, ≤ -4.2
- A12U A39U U53G G126U — lower, -4.09
- C14G G83C G117U — lower, -2.76
- C14G A20C G50U U53A G126U U139A — lower, ≤ -4.2
- A12G U78G A89G C95U U109C U145C A150G — lower, ≤ -4.2
- U13G C32A G86C A107G C125G U135A — lower, ≤ -4.2
- C14G A19G C54U C76G U82G A119G G128C U134C — lower, ≤ -4.2
- C14A A16C U56G C57G A91C G136U — lower, ≤ -4.2
- A12U A24U C43A G46A U53A U55A C57U A60G G80U C93G — lower, ≤ -4.2
- C14G U15A C18U G25U C27G G62A C85G A138C — lower, ≤ -4.2
- U13G G84U — lower, -3.13
- C14G G88U G140A — lower, ≤ -4.2
- U13G U111G — lower, ≤ -4.2
- A12U C57G U78C C93U U127A — lower, ≤ -4.2
- U13C C18U — higher, 0.127
- U13C A20C G83U C85A C93A — lower, ≤ -4.2
- C14G U15A G68C G83A U111C — lower, ≤ -4.2
- C14G C72U — lower, -3.04
- U13G C27G C51A G84C A142G A147C — lower, ≤ -4.2
- A12U G84C C93U G140A — lower, ≤ -4.2
- U13G C36A G83U C99A G140U — lower, -4
- U13C G50U G86C A89U C96A C116A — lower, ≤ -4.2
- U13C C54U C103U — higher, -1.54
- U13C U56A A60G C95U C105G U109G C132A U145G — lower, ≤ -4.2
- A12U G34C G62C A73U C96U A107G C116G A147G — lower, ≤ -4.2
- C14G A52C G58A C96U C125G — lower, -3.92
- U13G C79A C103U — lower, ≤ -4.2
- C14G C75A G84U — lower, -4.14
- U13C U148C — lower, -2.48
- A12G U55A C76A C93A A120G — lower, -3.73
- C14G A52G G141C — lower, -3.34
- C14A A39G G42A U82C G88C — lower, ≤ -4.2
- C14G A20U U55A C85A C105U U134A — lower, ≤ -4.2
- A12U G71A C75U G84A C85U G117A — lower, ≤ -4.2
- U13G A19C A29G G50C U127C — lower, ≤ -4.2
- A12U C36G G92C A147G — lower, ≤ -4.2
- C14U A21U G50C U56A A66C A91U G143C — lower, ≤ -4.2
- C14A A37G C93U — lower, -4.13
- A12U A39U U55A G68A C96U U145G — lower, ≤ -4.2
- C14A G34U G74C G84U G143A — lower, ≤ -4.2
- U13A A16G G86U — lower, -2.89
- U13G C93G — lower, -3.88
- A12U A24C G46A A52G G141U A147G — lower, ≤ -4.2
- U13C C54U C87U — higher, -1.35
- A12U G48U U53A C54G G71A C75G G86A C95U A119C — lower, ≤ -4.2
- U13G G83C U145C — lower, -3.39
- A12G U55C C57G C87G A121G U148A A150C — lower, ≤ -4.2
- C14A A20U C85A U109G — lower, ≤ -4.2
- U13G U31C A40G G58U U78C C85G C114U G141U — lower, ≤ -4.2
- C14G A24U A30U U44A C54A C87U G112U — lower, -4.11
- A12U U56C G59A G88C — lower, ≤ -4.2
- A12U A17C A22C A142C — within 0.2 log units, -2.44
- U13C A19U U55A G83A U111G — lower, ≤ -4.2
- A12U C96U — higher, -0.566
- A12U G50A U53A C87U G136A — lower, ≤ -4.2
- U13G U33G C54U — lower, ≤ -4.2
- C14A A20U A21U U102G — lower, ≤ -4.2
- U13C A21G U31C G42A A52C C95A C129G — lower, ≤ -4.2
- A12U C14U A121U C125U — higher, -0.306
- U13C G25C C76A A97U C103G C105G U139C — lower, ≤ -4.2
- A12U A26U G46C C57U C93U C125G U127G A138G — lower, ≤ -4.2
- A12U A23U U45C A97G A98U C131G C132U — lower, -4.12
- C14A A16G U45A U55G U61A G65U G94C C96U U101G — lower, ≤ -4.2
- C14G C18U A22C A40C U53A C75A U77A G94C G117U A119G C149G — lower, ≤ -4.2
- U13G C14G A20U A37G A47C A49U C99U C149U — lower, ≤ -4.2
- C14G C27G U55G G68A U82A G94C A107U A142G — lower, ≤ -4.2
- A12U G59U G94C C114U — lower, -2.68
- C14G A40C G42C G48A G86U G92U C99A — lower, ≤ -4.2
- U13A A22U A89G C95A — higher, -1.67
- U13G U78G G86U G140A G141A — lower, ≤ -4.2
- C14G A39G U53A C54U C93A — lower, ≤ -4.2
- U13C G94C U104G — within 0.2 log units, -2.15
